Measurements reported in patent US20060171935A1, “Protecting cell therapy for neurological disorders including Parkinson's disease” (priority 2005, published 2006).
Changes are numbered by the printed parent chain. Names may count otherwise.

How the values were obtained:
[1] = test system: CAD murine neuroblastoma cells; assay: Q333P NFL intracytoplasmic inclusions in CAD cells; assay type: cell-based; conditions: co-overexpression with Q333P mutant NFL
Experimental: In a separate set of experiments, the inventors assayed the ability of DJ-1 to inhibit aggregation of a second substrate, neurofilament light subunit (NFL). Overexpression of a mutant form of human NFL, Q333P, by transient transfection of CAD murine neuroblastoma cells, leads to the accumulation of intracytoplasmic inclusions (Perez-Olle et al. 2002).
(§1) Quantification of CAD cell aggregates was performed using a Zeiss LSM Pascal confocal microscope (Zeiss, Oberkochen, Germany) with a 20× long working distance lens. Images were imported to NIH Image J for analysis. Images from tenrandomly selected fields in each of three wells were quantified for each condition. Cells containing at least one intracytoplasmic aggregate, independent of size or number per cell, were scored as positive for aggregates. This number was divided by the number of transfected cells per field, determined by GFP fluorescence.

[2] = test system: CAD murine neuroblastoma cells; assay: αSyn intracytoplasmic inclusions in CAD cells; assay type: cell-based; conditions: co-overexpression with αSyn
Experimental: To further evaluate αSyn aggregation, the inventors performed immunohistochemical analyses of CAD cells transfected with αSyn along with DJ-1 or control vector (FIG. 25). Overexpression of αSyn in neuroblastoma cells induces the formation of visible cytoplasmic aggregates (Lee and Lee 2002) (FIGS. 25J-25L).
as §1

DJ-1-deficient ES cells = assay: Rescue of DJ-1-deficient ES cells from H2O2, MTT viability; assay type: cell-based, murine; conditions: transient transfection, 10 μM H2O2 for 15 h
Experimental: (A) DJ-1 cysteine-to-alanine mutants C106A, C53A, and a triple mutant that harbors mutations at all three cysteines in DJ-1 (C106A/C53A/C46A), as well as L166P, were tested for in vitro chaperone activity by CS aggregation suppression assay. (B) Self-association of DJ-1 cysteine mutants. Murine neuroblastoma CAD cells were transiently cotransfected with Flag-tagged human DJ-1 vectors (either WT or mutant) along with WT YFP-tagged human DJ-1. Lysates were immunoprecipitated with anti-Flag antibodies and probed by Western blotting with an antibody specific for human DJ-1. […] Lysates represent 20% of the input for the immunoprecipitate; Flag-DJ-1 migrates at 22 kDa, and YFP-DJ-1 migrates at 50 kDa. (C) DJ-1-deficient ES cells were transiently transfected with vector alone, WT DJ-1, or DJ-1 cysteine mutants, and exposed to 10 μM H2O2 for 15 h followed by MTT assay. The viability of the cells in the absence of drug treatment was not altered by the expression of WT or mutant DJ-1). Data are shown as the mean±SEM and were analyzed by ANOVA with Fisher's post-hoc test. *p<0.05.
To confirm that altered sensitivity to oxidative stress is a consequence of the loss of DJ-1, ‘rescue’ experiments by overexpressing wild-type or mutant human DJ-1 in ‘knockout’ ES cells were performed. Plasmids encoding human wild-type DJ-1, PD-associated L166P mutant DJ-1, or vector alone, were transiently transfected into DJ-1 deficient clones, and these were subsequently assayed for sensitivity to H2O2 using the MTT viability assay.
In Vivo Assays. ES cells plated in 96-well format (2.3×10^4 cells/well) were treated for 15 hours with H2O2 in ES media deficient in β-mercaptoethanol (Abeliovich et al. 2000). Cell viability (as a percent of untreated control) was determined by MTT assay in triplicate (Fezoui et al. 2000). Annexin V/Propidium Iodide (Molecular probes) staining was performed per the manufacturer's instructions. For dihydrorhodamine-123 staining (DHR, Molecular probes) (Walrand et al. 2003), cells were preincubated for 30 min with DHR (5 μM), washed with PBS, then treated with H2O2 in ES media deficient in β-mercaptoethanol for 15 min at 37° C. The FACS analysis was performed using a FACSTAR sorter (Becton Dickinson). Dopamine uptake assay was performed essentially as described (Farrer et al. 1998). Reported values represent specific uptake from which non-specific uptake, determined in the presence of mazindol, was subtracted, and normalized for protein content (BCA kit, Pierce).

citrate synthase (CS) = biological target: T1, citrate synthase (CS) (Sus scrofa, UniProt P00889); assay: Suppression of heat-induced aggregation of citrate synthase (chaperone assay); assay type: biochemical; conditions: 0.8 μM CS, 43° C.
T1 construct: purchased Sigma
T1 sequence (P00889 28-464): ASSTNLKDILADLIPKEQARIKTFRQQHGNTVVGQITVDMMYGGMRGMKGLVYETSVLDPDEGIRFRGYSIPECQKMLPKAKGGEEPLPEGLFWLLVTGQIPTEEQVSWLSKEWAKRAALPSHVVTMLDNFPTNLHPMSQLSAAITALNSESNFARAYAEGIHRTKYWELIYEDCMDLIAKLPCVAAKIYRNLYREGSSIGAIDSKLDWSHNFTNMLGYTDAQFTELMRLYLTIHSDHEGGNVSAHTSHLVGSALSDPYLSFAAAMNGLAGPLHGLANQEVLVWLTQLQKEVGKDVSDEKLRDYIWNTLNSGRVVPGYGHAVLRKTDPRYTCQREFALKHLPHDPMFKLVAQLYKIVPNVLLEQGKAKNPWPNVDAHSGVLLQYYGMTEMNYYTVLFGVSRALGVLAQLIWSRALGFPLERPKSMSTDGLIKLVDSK
Experimental: To test the redox regulation of DJ-1, the inventors assayed chaperone activity in the CS aggregation assay in the presence or absence of the reducing agent DTT. […] (FIG. 22D). […] To further test whether redox regulation might govern DJ-1 chaperone activity, reactivation studies using reduced DJ-1 were performed. DTT-reduced DJ-1 was incubated with H2O2 (10 mM in aggregation buffer for 10 min at 4° C. followed by dialysis against aggregation buffer for 2 h), and subsequently chaperone activity was measured in the CS thermal aggregation assay. […] This was not an indirect effect of residual H2O2 on CS aggregation, as H2O2 treatment of CS increased aggregation (unpublished data).
CS aggregation was performed in 40 mM HEPES (pH 7.8), 20 mM potassium hydroxinde, 50 mM potassium chloride, and 10 mM ammonium sulfate, and monitored in a thermostat-controlled fluorescence spectrophotometer with excitation and emission wavelengths at 500 nm and slit widths at 2.5 nm. Insulin aggregation was performed as described (Giasson et al. 2000). CS, insulin, RNase A, and GST were obtained from Sigma; human Hsp27 was obtained from Stressgen.

CD thermal denaturation = assay type: physicochemical; conditions: CD at 222 nm, range studied 0-90° C.
Excerpt: (G) Redox regulation is unaffected by the C106A mutation.
Molecular chaperones typically display marked stability to thermal stress (Sastry et al. 2002). […] (FIG. 28).

[3] = test system: Undifferentiated ES cells; assay: Q333P mutant NFL toxicity, MTT reduction, undifferentiated ES cells; assay type: cell-based; conditions: 72 h
Experimental: FIG. 30 depicts the additional studies of DJ-1 mutations. […] Cells from FIG. 4M were quantified via ToPro3 nuclear staining and are expressed as number of cells per field from ten independent fields in each of three wells. Data are shown as the mean±SEM and were analyzed by ANOVA with Fisher's post-hoc test. *p<0. […] GFP positive transfected cells from FIG. 5A-5L were quantified and are expressed as number of transfected cells per field from ten independent fields in each of three wells. Data are shown as the mean±SEM and were analyzed by ANOVA with Fisher's post-hoc test. *p<0. (C) Overexpression of WT DJ-1, but not L166P mutant DJ-1, rescues cells from Q333P mutant NFL toxicity. HeLa cells were transfected with Q333P mutant NFL along with WT human DJ-1, L166P mutant DJ-1, or vector control. After 72 h, cells were assayed by MTT reduction assay (which detects reduction of 3-(4,5-dimethylthiazol-2-yl)-2,5-diphenyltetrazolium bromide by metabolic enzymes) (Martinat et al. 2004). Data are shown as the mean±SEM and were analyzed by ANOVA with Fisher's post-hoc test. *p<0. […] Undifferentiated ES cells were transfected with Q333P mutant NFL along with WT human DJ-1, C53A mutant DJ-1, or vector control. After 72 h, cells were assayed by MTT reduction assay (Martinat et al. 2004). Data are shown as the mean±SEM and were analyzed by ANOVA with Fisher's post-hoc test. *p<0. […]

DY-1 ES cells = assay: Candidate soluble factors in DY-1 ES cell differentiation to dopamine neurons; assay type: cell-based, murine; conditions: added at stages 4-5 of differentiation
Experimental: The availability of marked ES-derived ‘late’ dopamine neurons should facilitate the analysis of candidate soluble and cell-associated factors in the differentiation process. […] Briefly, DY-1 ES cells were differentiated using EB or SDIA and candidate factors were added to the standard differentiation protocol at stages 4-5 of differentiation (Lee et al., 2000).

B1: L166P DJ-1: Parkinsonism-associated L166P mutant of human DJ-1, recombinant or plasmid-expressed (protein, UniProt Q99497 1-189, looked up, variant L166P)
chain: MASKRALVILAKGAEEMETVIPVDVMRRAGIKVTVAGLAGKDPVQCSRDVVICPDASLEDAKKEGPYDVVVLPGGNLGAQNLSESAAVKEILKEQENRKGLIAAICAGPTALLAHEIGFGSKVTTHPLAKDKMMNGGHYTYSENRVEKDGLILTSRGPGTSFEFAPAIVEALNGKEVAAQVKAPLVLKD
[1]
  accumulation of NFL inclusions: failed to inhibit
[2]
  number of cells containing αSyn aggregates: fails to do so
DJ-1-deficient ES cells
  viability of DJ-1 knockout cells in the presence of H2O2: did not significantly alter the viability
Citrate synthase (CS)
  suppression of heat-induced aggregation of CS (chaperone activity): abrogated chaperone activity
CD thermal denaturation
  thermal unfolding transition: does not exhibit a thermal unfolding transition

B2: C53A: DJ-1 cysteine-to-alanine mutant at cysteine 53 (protein, UniProt Q99497 1-189, looked up, variant C53A)
chain: B1 chain with C53A, P166L
[3]
  rescue from Q333P mutant NFL toxicity: unable to rescue
DJ-1-deficient ES cells
  viability of DJ-1 knockout cells in the presence of H2O2: failed to protect
Citrate synthase (CS)
  suppression of heat-induced aggregation of CS (chaperone activity): completely abrogates chaperone activity

B3: Noggin: soluble Noggin, inhibits BMP signaling (protein, UniProt Q13253 28-232, looked up)
Noggin: QHYLHIRPAPSDNLPLVDLIEHPDPIFDPKEKDLNETLLRSLLGGHYDPGFMATSPPEDRPGGGGGAAGGAEDLAELDQLLRQRPSGAMPSEIKGLEFSEGLAQGKKQRLSKKLRRKLQMWLWSQTFCPVLYAWNDLGSRFWPRYVKVGSCFSKRSCSVPEGMVCKPSKSVHLTVLRWRCQRRGGQRCGWIPIQYPIISECKCSC
DY-1 ES cells
  generation of late dopamine neurons (eYFP fluorescence, DAT immunoreactivity, late DN markers): did not detect any effect
